# According to the Human Domainome abundance scans (Beltran et al. 2025):
# ± gives the uncertainty stated by the source.
# B1: Ankyrin repeat and SAM domain-containing protein 6, residues 774 to 836; numbered along this chain, Q68DC2 (parent)
# chain: DEDELTGILKKLSLEKYQPIFEEQEVDMEAFLTLTDGDLKELGIKTDGSRQQILAAISELNAG
# Variants of: B1
# Assay: abundance fitness (aPCA) (normalised: wild type 0, dead -1); higher = more abundant; growth selection in yeast, the domain comes from the species named
# Conditions: Homo sapiens
row,Variant,abundance fitness
1,E23A,-0.062 ± 0.051
2,E23N,-0.165 ± 0.068
3,E23K,-0.085 ± 0.1
4,E23C,-0.409 ± 0.062
5,E23L,-0.419 ± 0.039
6,E23S,-0.168 ± 0.047
7,E23T,-0.231 ± 0.062
8,E23D,-0.155 ± 0.085
9,E23Y,-0.543 ± 0.07
10,E23I,-0.317 ± 0.083
11,E23P,-0.95 ± 0.086
12,E23R,-0.06 ± 0.039
13,E23M,-0.318 ± 0.067
14,E23V,-0.593 ± 0.068
15,E23G,-0.229 ± 0.062
16,E23H,-0.429 ± 0.13
17,E23Q,-0.17 ± 0.066
18,F21W,-0.847 ± 0.096
19,F21H,-0.629 ± 0.058
20,F21L,-0.222 ± 0.048
21,F21S,-0.615 ± 0.06
22,F21C,-0.697 ± 0.2
23,F21T,-0.589 ± 0.081
24,F21G,-0.579 ± 0.079

row,Variant,abundance fitness
1,F21V,-0.595 ± 0.095
2,F21N,-0.553 ± 0.16
3,F21M,-0.372 ± 0.077
4,F21P,-0.65 ± 0.098
5,F21A,-0.348 ± 0.058
6,F21E,-0.36 ± 0.092
7,F21K,-0.556 ± 0.082
8,F21I,-0.615 ± 0.17
9,F21R,-0.609 ± 0.049
10,E25Y,-0.262 ± 0.05
11,E25R,-0.147 ± 0.069
12,E25T,-0.412 ± 0.082
13,E25N,0.006 ± 0.051
14,E25L,-0.293 ± 0.062
15,E25A,0.023 ± 0.11
16,E25W,-0.449 ± 0.17
17,E25G,-0.023 ± 0.078
18,E25I,-0.281 ± 0.06
19,E25M,-0.038 ± 0.084
20,E25D,-0.159 ± 0.063
21,E25S,-0.08 ± 0.041
22,E25C,-0.073 ± 0.057
23,E25V,-0.21 ± 0.061
24,E25K,0.301 ± 0.15

row,Variant,abundance fitness
1,E25Q,-0.204 ± 0.21
2,E25P,-0.653 ± 0.14
3,E25F,-0.166 ± 0.051
4,E25H,-0.048 ± 0.062
5,E29A,-0.025 ± 0.046
6,E29C,-0.338 ± 0.065
7,Q24T,-0.257 ± 0.062
8,Q24M,-0.165 ± 0.1
9,Q24I,-0.47 ± 0.11
10,Q24G,-0.128 ± 0.042
11,Q24R,-0.096 ± 0.044
12,Q24V,-0.442 ± 0.042
13,Q24P,-0.925 ± 0.11
14,Q24F,-0.25 ± 0.11
15,Q24S,-0.033 ± 0.039
16,Q24K,-0.042 ± 0.081
17,Q24Y,-0.112 ± 0.11
18,Q24A,-0.04 ± 0.041
19,Q24W,-0.458 ± 0.081
20,Q24D,-0.369 ± 0.07
21,Q24H,-0.261 ± 0.12
22,E22Y,-0.231 ± 0.075
23,E22G,-0.388 ± 0.054
24,E22F,-0.402 ± 0.074

row,Variant,abundance fitness
1,E22S,-0.059 ± 0.046
2,E22A,-0.107 ± 0.04
3,E22L,-0.179 ± 0.045
4,E22H,-0.394 ± 0.094
5,E22C,-0.299 ± 0.072
6,E22I,-0.854 ± 0.36
7,E22M,-0.091 ± 0.072
8,E22W,-0.743 ± 0.068
9,E22K,-0.103 ± 0.052
10,E22D,-0.149 ± 0.072
11,E22V,-0.256 ± 0.048
12,E22Q,-0.104 ± 0.063
13,E22T,-0.093 ± 0.054
14,D27L,-0.895 ± 0.054
15,D27P,-0.483 ± 0.054
16,D27A,-0.47 ± 0.042
17,D27R,-0.215 ± 0.044
18,D27H,-0.282 ± 0.075
19,D27S,-0.075 ± 0.048
20,D27E,-0.294 ± 0.063
21,D27Y,-0.729 ± 0.077
22,D27T,0.001 ± 0.044
23,D27F,-1.25 ± 0.25
24,D27I,-0.827 ± 0.096

row,Variant,abundance fitness
1,D27W,-0.857 ± 0.11
2,D27Q,-0.44 ± 0.073
3,D27C,-0.376 ± 0.075
4,D27K,-0.212 ± 0.051
5,D27V,-0.988 ± 0.045
6,P19M,-0.035 ± 0.15
7,P19S,-0.094 ± 0.04
8,P19L,-0.456 ± 0.072
9,P19K,-0.416 ± 0.12
10,P19T,-0.138 ± 0.078
11,P19V,-0.346 ± 0.055
12,P19Q,-0.21 ± 0.16
13,P19N,-0.059 ± 0.071
14,P19Y,-0.234 ± 0.054
15,P19W,-0.208 ± 0.14
16,P19R,-0.116 ± 0.057
17,M28S,-0.094 ± 0.054
18,M28R,-0.159 ± 0.039
19,M28E,-0.437 ± 0.097
20,M28H,-0.218 ± 0.099
21,M28C,-0.319 ± 0.072
22,M28F,-0.132 ± 0.07
23,M28V,-0.219 ± 0.054
24,M28P,-0.168 ± 0.055

row,Variant,abundance fitness
1,M28G,-0.213 ± 0.043
2,M28L,-0.155 ± 0.04
3,M28Q,-0.29 ± 0.073
4,M28D,-0.466 ± 0.097
5,M28I,-0.202 ± 0.063
6,M28Y,-0.106 ± 0.07
7,M28K,-0.025 ± 0.061
8,M28A,-0.055 ± 0.056
9,M28N,-0.315 ± 0.11
10,M28T,0.007 ± 0.053
11,V26Y,-0.327 ± 0.099
12,V26I,-0.056 ± 0.066
13,V26D,-0.821 ± 0.14
14,V26C,-0.353 ± 0.06
15,V26K,-0.425 ± 0.063
16,V26M,-0.024 ± 0.07
17,V26R,-0.588 ± 0.048
18,V26Q,-0.589 ± 0.061
19,V26T,-0.479 ± 0.081
20,V26E,-0.532 ± 0.071
21,V26G,-0.539 ± 0.041
22,V26A,-0.542 ± 0.049
23,V26F,-0.177 ± 0.082
24,V26S,-0.649 ± 0.052

row,Variant,abundance fitness
1,V26H,-0.74 ± 0.097
2,V26W,-0.405 ± 0.047
3,V26N,-0.664 ± 0.11
4,V26L,-0.145 ± 0.038
5,I20A,-0.111 ± 0.059
6,I20V,0.101 ± 0.093
7,I20R,-0.046 ± 0.05
8,I20H,-0.213 ± 0.16
9,I20F,-0.352 ± 0.17
10,I20N,-0.015 ± 0.097
11,I20G,-0.494 ± 0.065
12,I20S,-0.301 ± 0.062
13,I20P,-0.617 ± 0.08
14,I20T,-0.096 ± 0.068
15,I20K,-0.104 ± 0.07
16,I20Y,-0.273 ± 0.072
17,I20Q,-0.083 ± 0.061
18,I20M,0.09 ± 0.06
19,I20D,-0.091 ± 0.15
20,I20E,-0.299 ± 0.12
21,I20C,0.015 ± 0.074
22,I20W,-0.252 ± 0.097
23,I20L,-0.124 ± 0.06
